Reference: paper PMC1781933, “Structure-based engineering of papillomavirus major capsid L1: controlling particle assembly” (Virology Journal, 2007)

Molecular target: the molecule itself
Test: SEC; Superdex-200, L1 eluted from the glutathione column after thrombin cleavage; step: L1 chains to pentamer

B1: full-length HPV16 L1 (natural protein)
chain: MSLWLPSEATVYLPPVPVSKVVSTDEYVARTNIYYHAGTSRLLAVGHPYFPIKKPNNNKILVPKVSGLQYRVFRIHLPDPNKFGFPDTSFYNPDTQRLVWACVGVEVGRGQPLGVGISGHPLLNKLDDTENASAYAANAGVDNRECISMDYKQTQLCLIGCKPPIGEHWGKGSPCTNVAVNPGDCPPLELINTVIQDGDMVDTGFGAMDFTTLQANKSEVPLDICTSICKYPDYIKMVSEPYGDSLFFYLRREQMFVRHLFNRAGAVGENVPDDLYIKGSGSTANLASSNYFPTPSGSMVTSDAQIFNKPYWLQRAQGHNNGICWGNQLFVTVVDTTRSTNMSLCAAISTSETTYKNTNFKEYLRHGEEYDLQFIFQLCKITLTADVMTYIHSMNSTILEDWNFGLQPPPGGTLEDTYRFVTSQAIACQKHTPPAPKEDPLKKYTFWEVNLKEKFSADLDQFPLGRKFLLQAGLKAKPKFTLGKRKATPTTSSTSTTAKRKKRKL
notes: major capsid protein L1 of human papillomavirus type 16, full-length clone in pGEX-2T; Purified as pentamers; forms T = 7 particles in assembly buffer; also called wild-type L1; major capsid L1 protein; source: E. coli, expressed as GST-L1 fusion from pGEX-2T, glutathione column, cleaved with thrombin, Superdex-200; not shown: GST, N-terminal, cleaved
- stoichiometry N: 5
